Drawing on patent publication US12655454B2, “Process for producing formate using oxygen-tolerant enzymes” (GWANGJU INSTITUTE OF SCIENCE AND TECHNOLOGY, priority 2022, dated 2026), this text covers Km and kcat for one protein.

Substrate in this series: NC(=O)C1=CN([C@@H]2O[C@H](COP(=O)(O)OP(=O)(O)OC[C@H]3O[C@@H](n4cnc5c(N)ncnc54)[C@H](O)[C@@H]3O)[C@@H](O)[C@H]2O)C=CC1
The series can be described thus: NADH-dependent CO2 reduction kinetics of RcFDH (Michaelis-Menten). Conditions: Kpi buffer pH 7.0, absorbance at 365 nm. Format: biochemical, Rhodobacter capsulatus. On the procedure: To construct the Strep-Tag II-fused Rhodobacter capsulatu-derived formate dehydrogenase (RcFDH) expression plasmid, pTrcHis-RcFDH was used as a template. […] was performed to substitute the hexahistidine-tag for strep tag II. pTrcHis-RcFDH was amplified by PCR with the in-fusion primer (FW: SEQ ID NO: 9, RV: SEQ ID NO: 10). The PCR product was mixed with 5× In-Fusion HD Enzyme Premix to generate pTrcHis-strep-RcFDH. The E. coli MC1061 strain was transformed with pTrcHis-Strep-RcFDH, and R. eutropha HF210 [pGE771] strain was used as the Ralstonia eutropha-derived hydrogenase (ReSH)-expressing strain.
The enzyme reaction kinetics of RcFDH were measured for NADH-dependent reduction of CO2 to formate in the presence or absence of O2. The sealing cuvette was filled with 900 μL of Kpi buffer containing NADH and sealed; then, 100% CO2 and a mixed gas consisting of 4% O2 and 96 N2 (or 100% N2 for anaerobic conditions) were injected simultaneously for 30 min at 10 mL/min, respectively. RcFDH (2 mL, 2 μM) was purged with 10 mL/min N2 gas bubbling in a 10 mL sealing vial for 30 min to remove O2 from the air. The reaction was initiated by mixing 100 μL of 2 μM RcFDH with a gas-saturated solution in the sealing cuvette. The final concentration of NADH was varied from 0 to 1 mM.
All measurements were performed in triplicate based on the change in the absorbance at 365 nm in the cuvette, measured using a T60 UV-Vis spectrophotometer (PG Instruments Ltd, Lutterworth, UK). The change in the absorbance over 1 min was plotted using the Michaelis-Menten equation to calculate the kinetic parameters.
The present inventor investigated the enzymatic activities of ReSH and RcFDH in the presence or absence of O2. The NAD^+-dependent H2 oxidation reaction rate by ReSH was measured, and the Michaelis-Menten curve was fitted to calculate the kinetic parameters using Origin 2022 program (FIG. 3A). […] Similarly, the NADH-dependent CO2 reduction reaction rate by RcFDH was measured, and the Michaelis-Menten curve was fitted to calculate the kinetic parameters (FIG. 3B).

[1] abbreviates: other: 0% O2, NADH varied 0 to 1 mM.
Where [2] appears, read: other: 2% O2, NADH varied 0 to 1 mM.

The Km is the concentration of substrate that gives half-maximal velocity. What is called kcat is the maximal rate divided by the concentration of active sites.

B1: Strep-Tag II-fused Rhodobacter capsulatus-derived formate dehydrogenase (RcFDH), SEQ ID NO: 6 to SEQ ID NO: 8 (Rhodobacter capsulatus SB 1003) (protein)
chain 1: MKIWLPCDAAAKACGAEAVLAALRLEAEKRGGALDIARNGSRGMIWLEPLLEVETPAGRIGFGPMTPADVPALFDALESHPKALGLVEEIPFFKRQTRLTFARCGRIEPLSLAQFAAAEGWAGLRKALKMTPAEVVEEVLASGLRGRGGAGFPTGIKWRTVAAAQADQKYIVCNVDEGDSGSFADRMLIEGDPFCLVEGMAIAGHAVGATRGYVYIRSEYPDAIAVMRAAIAMAKPFLAEAGFEMEVRVGAGAYVCGEETSLLNSLEGKRGTVRAKPPLPALKGLFGKPTVVNNLLSLAAVPWIIAHGAKAYESFGMDRSRGTIPLQIGGNVKRGGLFETGFGITLGELVEDICGGTASGRPVKAVQVGGPLGAYHPVSDYHLPFCYEQFAGQGGLVGHAGLVVHDDTADMLKLARFAMEFCAIESCGTCTPCRIGAVRGVEVIDRIAAGDASAMPLLDDLCQTMKLGSLCALGGFTPYPVQSAIRHFPADFPCAREAAE
chain 2: MKDLIIPPLDWTQDMGTPKREGAPVHLTIDGVEVTVPAGTSVLRAAAEAGISIPKLCATDNVEPVGSCRLCMVEIEGMRGTPTSCTTPVAPGMRVHTQTPQLQKLRRGVMELYISDHPLDCLTCAANGDCELQDMAGAVGLREVRYQAKDTHFARRDATGPNPRYIPKDNSNPYFSYDPAKCIVCMRCVRACEEVQGTFALTVMGRGFDARISPAAPDFLSSDCVSCGACVQACPTATLVEKSVERIGTPERKVVTTCAYCGVGCSFEAHMLGDQLVRMVPWKGGAANRGHSCVKGRFAYGYATHQDRILKPMIRDKITDPWREVNWTEALDFTATRLRALRDSHGADALGVITSSRCTNEETYLVQKLARAVFGTNNTDTCARVCHSPTGYGLKQTFGTSAGTQDFDSVEETDLALVIGANPTDGHPVFASRLRKRLRAGAKLIVVDPRRIDLLNTPHRGEAWHLQLKPGTNVAVMTAMAHVIVTEQIFDKRFIGDRCDWDEWADYAEFVANPEYAPEAVESLTGVPAGLLRQAARAYAAAPNAAIYYGLGVTEHSQGSTTVIAIANLAMMTGNIGRPGVGVNPLRGQNNVQGSCDMGSFPHEFPGYRHVSDDATRGLFERTWGVTLSSEPGLRIPNMLDAAVEGRFKALYVQGEDILQSDPDTRHVSAGLAAMDLVIVHDLFLNETANYAHVFLPGSTFLEKDGTFTNAERRINRVRRVMAPKAGFADWEVTQMLANALGAGWHYTHPSEIMAEIAATTPGFAAVTYEMLDARGSVQWPCNEKAPEGSPIMHVEGFVRGKGRFIRTAYLPTDEKTGPRFPLLLTTGRILSQYNVGAQTRRTENTVWHGEDRLEIHPTDAETRGIRDGDWVRLASRAGETTLRATVTDRVSPGVVYTTFHHPDTQANVVTTDTSDWATNCPEYKVTAVQVAASNGPSDWQQDYAAQAAAARRIEAAE
As for B1, the Km was determined as 0.166 ± 0.030 mM under setting [1] and 0.141 ± 0.022 mM under setting [2]. Further, the turnover number (kcat) under setting [1] is 0.703 ± 0.043 s⁻¹ and the kcat under setting [2] was determined as 0.699 ± 0.035 s⁻¹.
